The values below come from patent US20220290101A1.

The labels stand for the following.
B1: 1141_P01_E01 (scFv) (scFv)
scFv: QVQLVQSGAEVKKPGESLKISCKGSGYSFTSYWIGWVRQMPGKGLEWMGIIYPGDSDTRYSPSFQGQVTISADKSISTAYLQWSSLKASDTAMYYCARHQVDTRTADYWGQGTLVTVSSGGGGSGGGGSGGGASQSALTQPASVSGSPGQSVTISCTGTRSDVGGYNYVSWYQHHPGKAPKLMIYEVSNRPSGVSNRFSGSKSGNTASLTISGLQAEDEADYYCSSYTSTSTLVFGGGTKLTVL
B2: 1251_P02_C05 (scFv) (scFv)
scFv: EVQLLESGGGLVQPGGSLRLSCAASGFTFSSYAMSWVRQAPGKGLEWVSAISGGGGTTYSSDSVKGRFTISRDNSKNTLYLQMNSLRAEDTAVYYCARDSGVAFDIWGQGTLVTVSSGGGGSGGGGSGGGASDIQMTQSPSFLSASVGDRVTITCRASQNIRTWLAWYQQKPGRAPKLLIYDASSLESGVPSRFSGSGSGTDFTLTISSLQPEDFATYYCQQFKRYPPTFGLGTKVEIK
B3: 1251_P02_G10 (scFv) (scFv)
scFv: EVQLVESGGGLVQPGGSLRLSCAASGFTFSDYYMSWIRQAPGKGLEWVSYISSSGSTIYYADSVKGRFTISRDNAKNSLYLQMNSLRAEDTAVYYCARHSWNDAFDIWGRGTLVTVSSGGGGSGGGGSGGGASDIQMTQSPSSLSASVGDRVTITCRASQSISSHLNWYQQKPGKAPKLLIYAASSLQSGVPSRFSASGSGTDFTLTISSLQPEDFATYYCQQSYSTLLTFGGGTKVEIK
B4: 1245_P02_F07 (scFv) (scFv)
scFv: QVQLQQSGPGLVKPSQTLSLTCVISGDSVSSNSAAWNWIRQSPSRGLEWLGRTYYRSKWYNDYAVSVKSRITINPDTSKNQFSLQLNSVTPEDTAVYYCARDYYYSMDVWGQGTMVTVSSGGGGSGGGGSGGGASDIQMTQSPSTLSASVGDRVTITCRASQSISSWLAWYQQKPGKAPKLLIYDASSLESGVPLRFSGSGSGTEFTLTISSLQPDDFATYYCQQSHSHPPTFGPGTKVDIK
B5: 1139_P01_E04 (scFv) (scFv)
scFv: QVQLQQSGPGLVKPSQTLSLTCAISGDSVSSNSAAWNWIRQSPSRGLEWLGRTYYRSKWYNDYAVSVRSRITINPDTSKNQFSLQLNSVTPEDTAVYYCARSWNDAFDIWGQGTTVTVSSGGGGSGGGGSGGGASDIVMTQSPSTLSASIGDRVTITCRAGQSISTWLAWYQQKPGKAPKLLIYDASSLESGVPLRFSGSGSGTDFTLTISSLQPEDFATYYCQQSYSTPLTFGGGTKVEIK
B6: 1252_P01_C08 (scFv) (scFv)
scFv: EVQLLESGGGLVQPGRSLRLSCAASGFTVSSNYMSWVRQAPGKGLEWVSVIYSGGSTYYADSVKGRFTISRDNSKNTLYLQMNSLRAEDTAVYYCASPIELGAFDIWGQGTLVTVSSGGGGSGGGGSGGGASSYELTQPPSVSVAPGKTARITCGGNNIGSQSVHWYQQKPGQAPMLVIYYDSDRPSGIPERFSGSNSGNTATLTISRVEAGDEADYYCQVWDSSSDHVVFGGGTKLTVL
B7: 1245_P01_G09 (scFv) (scFv)
scFv: QVQLQQSGPGLVKPSQTLSLTCAISGDSVSSNSAAWNWIRQSPSRGLEWLGRTYYGSKWYNEYALSVKSRIIINPDTSKNQFSLQLNSVTPEDTAVYYCARDYYYSMDVWGQGTLVTVSSGGGGSGGGGSGGGASDIVMTQSPSTLSASIGDRVTITCRAGQSISTWLAWYQQKPGKAPKLLIYDASSLESGVPLRFSGSGSGTEFTLAISSLQPDDFATYYCQQSYSTPVTFGQGTKVEIK
B8: 1245_P02_G04 (scFv) (scFv)
scFv: QVQLQQSGPGLVKPSQTLSLTCAISGDSVSSKSAAWNWIRQSPSRGLEWLGRTYYRSKWSTDYAASVKSRITINPDTSKNQLSLQLNSVTPEDTAVYYCARTWSGYVDVWGQGTLVTVSSGGGGSGGGGSGGGASDIQMTQSPPALSASVGDRVTITCRASQDINDWLAWYQHKPGKAPKLLIYDASSLESGVPSRFSGSGSGTEFTLTISSLQPDDFATYYCQQSYSTPQVTFGQGTRLEIK
B9: 1245_P01_E07 (scFv) (scFv)
scFv: QVQLVESGGGLVKPGGSLRLSCAASGFTFSDYYMSWIRQAPGKGLEWVSYISSSGSTIYYADSVKGRFTISRDNAKNSLYLQMNSLRAEDTAVYYCARVDYADAFDIWGQGTLVTVSSGGGGSGGGGSGGGASDIQMTQSPSSLSASVGDRVTIACRAGQSIGTYLNWYQQKPGKAPKLLIYVASSLQSGVPSRFSGSGSGTEFTLTISSLQPEDFATYYCQQSYSTLLTFGRGTKVEIK

Sequence of L1 (DV1-GV4) soluble heterodimeric γδ TCR antigen, leucine zipper (LZ) format (human) (main, as listed by the source): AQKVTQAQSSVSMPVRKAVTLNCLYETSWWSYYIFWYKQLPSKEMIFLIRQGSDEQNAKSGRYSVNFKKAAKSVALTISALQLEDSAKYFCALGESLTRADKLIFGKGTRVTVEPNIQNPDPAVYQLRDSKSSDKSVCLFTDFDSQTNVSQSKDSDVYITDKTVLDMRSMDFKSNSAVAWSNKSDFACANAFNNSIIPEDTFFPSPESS

This assay concerns the target L1 (DV1-GV4) soluble heterodimeric γδ TCR antigen, leucine zipper (LZ) format (human). Briefly: DELFIA affinity ranking with 100 nM biotinylated L1.
Molecule B1 had a 100 nM L1 (DELFIA signal) (fluorescence units) of 137000. With B2, the 100 nM L1 (DELFIA signal) (fluorescence units) amounted to 65300.

Regarding B3, the 100 nM L1 (DELFIA signal) (fluorescence units) came to 17100. Molecule B4 yielded a 100 nM L1 (DELFIA signal) (fluorescence units) of 10400. With B5 the figure was 23800; with B6, 1980; with B7, 18400. With B8, the 100 nM L1 (DELFIA signal) (fluorescence units) was 5900. B9 registered a 100 nM L1 (DELFIA signal) (fluorescence units) of 163000.
